Assay results: patent US20200024330A1

Columns and labels:
Assay in all cases: cell-based or functional assay
[1] = target: aMLV envelope on pseudovirus (negative control)
[2] = target: HIV-1 IAVI-C3 envelope glycoprotein (Env) on pseudovirus (HIV-1)
[3] = target: HIV-1 APV13 envelope glycoprotein (Env) (HIV-1)
[4] = target: HIV-1 JR-CSF Env D417A (HIV-1 (isolate JR-CSF)) (UniProt P20871)
[5] = target: HIV-1 JR-CSF Env F210A (HIV-1 JR-CSF) (UniProt P20871)
[6] = target: HIV-1 JR-CSF Env F317A (HIV-1 isolate JR-CSF) (UniProt P20871)
[7] = target: HIV-1 JR-CSF Env H330A (HIV-1 isolate JR-CSF) (UniProt P20871)
[8] = target: HIV-1 JR-CSF Env I307A (HIV-1 JR-CSF) (UniProt P20871)
[9] = target: HIV-1 JR-CSF Env I415A (HIV-1 (isolate JR-CSF)) (UniProt P20871)
[10] = target: HIV-1 JR-CSF Env I420A (HIV-1 (isolate JR-CSF)) (UniProt P20871)
[11] = target: HIV-1 JR-CSF Env K421A (HIV-1 (isolate JR-CSF)) (UniProt P20871)
[12] = target: HIV-1 JR-CSF Env L416A (HIV-1 (isolate JR-CSF)) (UniProt P20871)
[13] = target: HIV-1 JR-CSF Env N241A (HIV-1 JR-CSF) (UniProt P20871)
[14] = target: HIV-1 JR-CSF Env N295A (HIV-1 JR-CSF) (UniProt P20871)
[15] = target: HIV-1 JR-CSF Env N301A (HIV-1 JR-CSF) (UniProt P20871)
[16] = target: HIV-1 JR-CSF Env N332A (HIV-1 isolate JR-CSF) (UniProt P20871)
[17] = target: HIV-1 JR-CSF Env N386A (HIV-1 isolate JR-CSF) (UniProt P20871)
[18] = target: HIV-1 JR-CSF Env N392Q (HIV-1 (isolate JR-CSF)) (UniProt P20871)
[19] = target: HIV-1 JR-CSF Env P313A (HIV-1 JR-CSF) (UniProt P20871)
[20] = target: HIV-1 JR-CSF Env Q337A (HIV-1 isolate JR-CSF) (UniProt P20871)
[21] = target: HIV-1 JR-CSF Env R350A (HIV-1 isolate JR-CSF) (UniProt P20871)
[22] = target: HIV-1 JR-CSF Env R419A (HIV-1 (isolate JR-CSF)) (UniProt P20871)
[23] = target: HIV-1 JR-CSF Env S199A (HIV-1 JR-CSF) (UniProt P20871)
[24] = target: HIV-1 JR-CSF Env T388A (HIV-1 (isolate JR-CSF)) (UniProt P20871)
[25] = target: HIV-1 Env of isolate 92BR020 (HIV-1)
[26] = target: HIV-1 92RW020 Env (pseudovirus) (HIV-1)
[27] = target: HIV-1 APV13 Env (pseudovirus) (HIV-1)
[28] = target: HIV-1 JRFL Env (pseudovirus) (HIV-1)
[29] = target: HIV-1 APV-13 envelope glycoprotein (Env) on pseudovirus (HIV-1)
[30] = target: HIV-1 92RW020 Env (pseudovirus) (HIV-1 92RW020)
[31] = target: HIV-1 Env of isolate 92RW009 (HIV-1)
[32] = target: HIV-1 Env of isolate 92RW026 (HIV-1)
[33] = target: HIV-1 Env of isolate MGRM-C-024 (subtype C), on pseudovirus (HIV-1)
[34] = target: HIV-1 Env of isolate MGRM-C-028 (subtype C), on pseudovirus (HIV-1)
[35] = target: HIV-1 JR-CSF Env, wild type (pseudovirus) (HIV-1 JR-CSF) (UniProt P20871)
[36] = target: HIV-1 envelope glycoprotein (Env) of isolate APV_17, on pseudovirus (HIV-1)
[37] = target: HIV-1 envelope glycoprotein (Env) of isolate CAAN.A2, on pseudovirus (HIV-1)
[38] = target: HIV-1 envelope glycoprotein (Env) of isolate MGRM-Chronic-B-002, on pseudovirus (HIV-1)
[39] = target: HIV-1 envelope glycoprotein (Env) of isolate MGRM-Chronic-B-008, on pseudovirus (HIV-1)
[40] = target: HIV-1 envelope glycoprotein (Env) of isolate MGRM-Chronic-B-010, on pseudovirus (HIV-1)

5123_A06 (PGT-125) (antibody)
neutralization IC50 [1]: > 10 µg/mL
neutralization IC80 [1]: > 10 µg/mL
neutralization IC90 [1]: > 10 µg/mL
neutralization IC95 [1]: > 10 µg/mL

2G12 (antibody)
IC90 (pseudovirus neutralization) [2]: > 50 µg/mL

PGT-122 (antibody)
IC50 neutralization [3]: 0.992 µg/mL
Fold IC50 increase relative to wild-type [4]: 0.5 fold
Fold IC50 increase relative to wild-type [5]: 2.6 fold
Fold IC50 increase relative to wild-type [6]: 3.4 fold
Fold IC50 increase relative to wild-type [7]: 0.5 fold
Fold IC50 increase relative to wild-type [8]: 3.8 fold
Fold IC50 increase relative to wild-type [9]: 0.4 fold
Fold IC50 increase relative to wild-type [10]: 3.5 fold
Fold IC50 increase relative to wild-type [11]: 1.2 fold
Fold IC50 increase relative to wild-type [12]: 1 fold
Fold IC50 increase relative to wild-type [13]: 1.4 fold
Fold IC50 increase relative to wild-type [14]: 0.7 fold
Fold IC50 increase relative to wild-type [15]: 0.4 fold
Fold IC50 increase relative to wild-type [16]: > 200 fold
Fold IC50 increase relative to wild-type [17]: 1.2 fold
Fold IC50 increase relative to wild-type [18]: 1 fold
Fold IC50 increase relative to wild-type [19]: 0.4 fold
Fold IC50 increase relative to wild-type [20]: 0.5 fold
Fold IC50 increase relative to wild-type [21]: 0.6 fold
Fold IC50 increase relative to wild-type [22]: 0.8 fold
Fold IC50 increase relative to wild-type [23]: 1 fold
Fold IC50 increase relative to wild-type [24]: 0.3 fold

VRC01 (antibody)
IC50 [25]: 0.29 µg/mL

5141_B17 (PGT-126) (antibody)
IC50 [26]: 0.0046 µg/mL
IC80 [26]: 0.0168 µg/mL
IC90 [26]: 0.0359 µg/mL
IC95 [26]: 0.0728 µg/mL
IC50 [27]: 0.012 µg/mL
IC80 [27]: 0.0411 µg/mL
IC90 [27]: 0.084 µg/mL
IC95 [27]: 0.162 µg/mL
IC50 [28]: 0.014 µg/mL
IC80 [28]: 0.0454 µg/mL
IC90 [28]: 0.09 µg/mL
IC95 [28]: 0.169 µg/mL

4838_L06 (PGT-121) (antibody)
neutralization IC80 [26]: 0.0188 µg/mL
neutralization IC90 [26]: 0.0361 µg/mL
neutralization IC95 [26]: 0.0671 µg/mL
neutralization IC80 [27]: 1.31 µg/mL
neutralization IC90 [27]: 2.8 µg/mL
neutralization IC95 [27]: 5.15 µg/mL
neutralization IC80 [28]: 0.0806 µg/mL
neutralization IC90 [28]: 0.151 µg/mL
neutralization IC95 [28]: 0.267 µg/mL

4858_P08 (PGT-123) (antibody)
IC50, pseudovirus neutralization [1]: > 10 µg/mL
IC80, pseudovirus neutralization [1]: > 10 µg/mL
IC90 (pseudovirus neutralization) [1]: > 10 µg/mL
IC95, pseudovirus neutralization [1]: > 10 µg/mL

b12 (antibody)
IC90 (pseudovirus neutralization) [29]: > 50 µg/mL

1496_C09 (PG9) (TCN-109) (antibody)
IC50 (ug/ml), neutralization [30]: 0.1 µg/mL
IC50 [31]: 0.05 µg/mL
IC50 [32]: 0.164 µg/mL
IC50 (µg/mL), pseudovirus neutralization [33]: 0.227 µg/mL
IC50 (µg/mL), pseudovirus neutralization [34]: 0.067 µg/mL
IC50 (ug/ml), neutralization [35]: 0.006 µg/mL
IC50, pseudovirus neutralization [36]: 34.8 µg/mL
IC50, pseudovirus neutralization [37]: 19.3 µg/mL
IC50, pseudovirus neutralization [38]: 3.44 µg/mL
IC50, pseudovirus neutralization [39]: 8.78 µg/mL
IC50, pseudovirus neutralization [40]: 0.004 µg/mL

PGV04 (antibody)
IC50 [31]: 0.108 µg/mL
IC50 [32]: 0.14 µg/mL
IC50 (µg/mL), pseudovirus neutralization [33]: > 50 µg/mL
IC50 (µg/mL), pseudovirus neutralization [34]: 0.149 µg/mL
IC50, pseudovirus neutralization [36]: 0.309 µg/mL
IC50, pseudovirus neutralization [37]: 2.26 µg/mL
IC50, pseudovirus neutralization [38]: 0.142 µg/mL
IC50, pseudovirus neutralization [39]: 0.166 µg/mL
IC50, pseudovirus neutralization [40]: 0.744 µg/mL

PGT-121 (antibody)
IC50 neutralization [3]: 0.316 µg/mL
Primary Neutralization Index (B cell culture well 4838 L06) [25]: 4.9
Primary Neutralization Index (B cell culture well 4873 E03) [25]: 3.6
Fold IC50 increase relative to wild-type [4]: 0.7 fold
Fold IC50 increase relative to wild-type [5]: 1.5 fold
Fold IC50 increase relative to wild-type [6]: 1.7 fold
Fold IC50 increase relative to wild-type [7]: 0.8 fold
Fold IC50 increase relative to wild-type [8]: 3.7 fold
Fold IC50 increase relative to wild-type [9]: 0.6 fold
Fold IC50 increase relative to wild-type [10]: 3.3 fold
Fold IC50 increase relative to wild-type [11]: 1.3 fold
Fold IC50 increase relative to wild-type [12]: 0.6 fold
Fold IC50 increase relative to wild-type [13]: 0.5 fold
Fold IC50 increase relative to wild-type [14]: 0.6 fold
Fold IC50 increase relative to wild-type [15]: 0.4 fold
Fold IC50 increase relative to wild-type [16]: > 200 fold
Fold IC50 increase relative to wild-type [17]: 1.3 fold
Fold IC50 increase relative to wild-type [18]: 0.9 fold
Fold IC50 increase relative to wild-type [19]: 0.5 fold
Fold IC50 increase relative to wild-type [20]: 1 fold
Fold IC50 increase relative to wild-type [21]: 0.8 fold
Fold IC50 increase relative to wild-type [22]: 1.8 fold
Fold IC50 increase relative to wild-type [23]: 0.8 fold
Fold IC50 increase relative to wild-type [24]: 0.9 fold

1443_C16 (PG16) (TCN-116) (antibody)
IC50 (ug/ml), neutralization [30]: 0.09 µg/mL
IC90 (pseudovirus neutralization) [29]: > 50 µg/mL
IC90 (pseudovirus neutralization) [2]: > 50 µg/mL
IC50 (ug/ml), neutralization [35]: 0.001 µg/mL
